# Experimental data reported in US20090081195A1 (OTTAWA HEALTH RESEARCH INSTITUTE, published 2009).
# T1: GST-SLK 950-1202 (GST-tagged SLK ATH domain) (murine, UniProt O54988 981-1233)
# T1 construct: Bacterially expressed GST fusion on glutathione sepharose; also called GST-ATH; not shown: glutathione S-transferase (GST) tag of pGEX-5X or pGEX-4T1 (Amersham)
# T1 sequence: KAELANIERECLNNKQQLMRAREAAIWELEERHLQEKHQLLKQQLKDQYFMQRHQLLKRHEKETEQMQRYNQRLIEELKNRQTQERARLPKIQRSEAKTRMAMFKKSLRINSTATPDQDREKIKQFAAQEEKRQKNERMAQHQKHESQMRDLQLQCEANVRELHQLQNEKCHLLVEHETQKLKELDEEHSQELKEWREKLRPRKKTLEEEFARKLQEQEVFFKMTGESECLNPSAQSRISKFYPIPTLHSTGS
# Biological target: T1, GST-SLK 950-1202 (GST-tagged SLK ATH …)
# Experiment: binding of [35S]-labeled Ldb2 deletions to GST-ATH
# Method: (c) Schematics of Myc epitope-tagged SLK deletion mutants. […] (d) Co-transfection of HA-tagged Ldb2 and Myc-tagged SLK deletion constructs was performed in HEK 293 cells. Extracts were immunoprecipitated with anti-HA antibody (12CA5) and immunoblotted with anti-Myc antibody (9E10) (bottom panel). Expression of the transfected constructs was confirmed by western blotting (top and middle panels). […] (e) Reciprocal co-IP showing that full length HA-SLK associates with Myc-Ldb1 and 2. (f) Association of endogenous SLK and Ldb. Ldb1 was immunoprecipitated from protein lysates obtained from MEF cells and primary neurons and subjected to western blot analysis with an anti-SLK antibody. A 220 KDa band corresponding to SLK co-precipitated with […]. Reciprocal immunoprecipitations were also performed on N1E 115 neuroblastoma cells or primary cortical neurons. A 50 Kda band corresponding to Ldb1 co-precipitated with SLK. As a control for non-specific binding to the sepharose beads, protein-A sepharose beads alone were added to 400 μg of the same protein lysates. Similar results were obtained with Ldb2
# To map the Ldb1/2 domains of interaction, [35S]-labeled deletions of Ldb1 were assayed for binding to a GST-tagged SLK ATH domain (FIG. 17a). […] In addition, versions of Ldb2 lacking the C-terminal LIM binding domain (ΔLBD) were able to bind the SLK ATH domain while the LBD of Ldb2 by itself could not bind (FIG. 17b). Further deletion of 62 amino acids from the carboxy terminal end of the dimerization domain (DDΔC) retained binding thus refining the Ldb2 binding region to the SLK ATH domain in the C-terminal 124 amino acids of Ldb2. An analogous set of Ldb1 deletion mutants were tested for binding to GST-ATH with similar results (data not shown).
row,binding result,Binder
1,binds,"HA-Ldb2 DD (aa 1-186) (other, mouse, UniProt O55203 1-186, looked up, not shown: small tags and cut ends, [35S]-methionine label, In vitro translated; also called Ldb2 dimerization domain) MSSTPHDPFYSSPFGPFYRRHTPYMVQPEYRIYEMNKRLQSRTEDSDNLWWDAFATEFFEDDATLTLSFCLEDGPKRYTIGRTLIPRYFSTVFEGGVTDLYYILKHSKESYHNSSITVDCDQCAMVTQHGKPMFTKVCTEGRLILEFTFDDLMRIKTWHFTIRQYRELVPRSILAMHAQDPQVLDQ"
2,no binding,"HA-Ldb2 LBD (aa 298-373) (other, mouse, UniProt O55203 298-373, looked up, not shown: small tags and cut ends, [35S]-methionine label, In vitro translated) DVMVVGEPTLMGGEFGDEDERLITRLENTQYDAANGMDDEEDFNNSPALGNNSPWNSKPPATQETKSENAPPQASQ"
3,binds,"HA-Ldb2 NLS (aa 188-288) (other, mouse, UniProt O55203 188-288, looked up, not shown: small tags and cut ends, [35S]-methionine label, range 188-288; In vitro translated; also called Ldb2 nuclear localization signal domain) SKNITRMGLTNFTLNYLRLCVILEPMQELMSRHKTYNLSPRDCLKTCLFQKWQRMVAPPAEPTRQPTTKRRKRKNSTSSTSNSSAGNTTNSAGSKKKTPAA"
